We go through 7 molecules from US20220275075A1 (PARACRINE THERAPEUTICS, published 2022).

First the molecules themselves.
B2: monoclonal antibody 6B3 (antibody, mouse IgG2a, V domains shown)
VH: QVQLQQSGVEVARPGASVKLSCKASGYTFRSYGITWVRQRTGQGLEWIGEIYPRSGKTYYNEKFKGKATLTADTSSSTVYMELRSLTSEDSAVYFCAREGYGYDGGYFDYWGQGTTLTVSS
VL: DIVMTQSPSSLAMSVGQKVTMSCKSSQSLLNSRNQKNYLAWYQQKPGQSPKLLVYFASTRESGVPDRFTGSGSGTDFTLTISSVQAEDLAVYYCQQHYSTPLTFGAGTKLELKR
notes: The variable domains are identical to those of 19C7; also called mu6B3; murine 6B3
B7: Peptide 3 (SVSIREELKRTDTIFWPGC) (peptide)
peptide: SVSIREELKRTDTIFWPGC
notes: Synthetic peptide; also called PDGFC peptide 3

Test [1] has as its target T1, recombinant human PDGF-CC active core domain protein with terminal histidine tag (human, UniProt Q9NRA1 231-345).
T1 construct: Made in baculovirus-infected Sf9 cells; The position of the tag in the chain is not known; also called RhPC; RhPCc; not shown: terminal histidine tag
In words: SPR, BIAcore 2000, His-tagged PDGF-CC on Ni-NTA chip, antibody as analyte, 1:1 Langmuir fit (apparent). How it is done:
Biosensor analyses were performed on a BIAcore 2000 biosensor using an NTA sensor chip. Briefly, a NTA sensor chip was loaded with Ni 2+ and used to immobilize histidine tagged PDGF-CC ligand. The PDGF-CC antibodies were passed over the chip at varying concentrations in order to determine apparent affinity (KD). Chips were regenerated with EGTA. The chip was re-equilibrated by washing with HBS (containing no EDTA) before further analyses. Using BIAevaluation software, a 1:1 Langmuir binding analysis model was used to estimate the apparent association (ka) and disassociation (kd) rate constants for each set of antibody experiments.

In test [2] the target is T2, recombinant human PDGF-DD (human, UniProt Q9GZP0 250-370, limits assumed).
T2 construct: The construct is not described; also called PDGF-D polypeptide; PDGF-DD (R&D)
The test can be described thus: ELISA, PDGF ligands coated at 1 µg/ml, purified mAb at 1.5 µg/ml. Here is the method: (§1) Following immunisation of mice and splenic fusions by standard procedures, the supernatant of 16 hybridomas were initially assessed for PDGF-CC binding specificity by ELISA and Western analysis. A sensitive ELISA assay was employed to explore this using commercially available PDGF-AA, PDGF-BB, PDGF-DD and recombinant PDGF-CC. Specifically, antigen immobilization of purified recombinant human PDGF ligands, PDGF-AA, BB, CC and DD diluted in 100 mM NaHCO₃ at the concentration of 1μg/ml, was performed overnight at +4° C. Thereafter, all incubations were done at room temperature 1.5-2 hours and washes carried out with PBS. In triplicate, hybridoma supernatants were applied at a dilution of 1:2 in PBS/1% bovine serum albumin (BSA), or purified monoclonal antibody (mAbs) was added (1.5μg/ml in 3% BSA). A rabbit polyclonal IgG—purified antibody was used as positive control (4 μg/ml). Binding was detected with an anti—mouse (or anti—rabbit in control) alkaline phosphatase—conjugated secondary antibody and visualized by incubation with alkaline phosphatase yellow (pNPP) liquid substrate system for ELISA (Sigma—Aldrich). Absorbance was read at 405 nm.
A general note: An ELISA detects its analyte on a solid surface through an enzyme-linked reagent.

In test [3] the target is T3, recombinant human PDGF-BB (human, UniProt P01127 82-190).
T3 construct: Bought; The construct is not described; also called PB
The test is described as above. Here is the method: as §1

Test [4] addresses T4, recombinant human PDGF-AA (human, UniProt P04085 87-211).
T4 construct: Bought; The construct is not described
The description is as above. Here is the method:
as §1

Test [5] addresses T5, overlapping PDGF-C peptide EELKRTDTIFC (human).
T5 construct: Synthesised with a C-terminal cysteine for thiol immobilisation
T5 peptide: EELKRTDTIFC
The test can be described thus: Biacore, 6B3 at 20.8 nM-667 nM over thiol-immobilised peptide. Background: SPR reads the build-up and loss of mass on a sensor chip optically.

The target of test [6] is T6, PDGF-C peptide epitope SVSIREELKC (human).
T6 construct: Synthesised with a C-terminal cysteine for thiol immobilisation on the sensor chip
T6 peptide: SVSIREELKC
The description is as above.

In test [7] the target is T7, RTDTIFWPGC
T7 peptide: RTDTIFWPGC
The test is described as above.

For test [8], the target named is T8, corresponding PDGF-D peptide SVNIREELKC (human).
T8 construct: Synthesised with a C-terminal cysteine; also called alternate peptide
T8 peptide: SVNIREELKC
The test can be described thus: Biacore, 6B3 over thiol-immobilised peptide. Here is the method: Samples of 6B3 antibody (1.334 μM) was injected (30 μL at 10 μL/min) in HBS buffer over the immobilized peptides.

For test [9], the target named is B7. The test can be described thus: SPR, 6B3 (20.8 nM-667 nM) over thiol-immobilised peptide 3. Here is the method: Peptide 3 was immobilized on channel 4 of the carboxymethyldextran-coated sensor chip using thiol chemistry. Briefly, the chip was activated on channel 4 using standard amine coupling chemistry (0.05M NHS/0.2M EDC) followed by 80 mM (2-(2-pyridinyldithio)ethane amine (PDEA) in 1M borate PH 8.2. Peptide 3 (100 nM in 10 mM sodium acetate pH 4.5) was conjugated via its C-terminal cysteine to PDEA. The chip was then blocked using 40 mM L-cysteine in 10 mM sodium acetate pH 4.0 and 1 M ethanolamine pH 8.2. A blank derivatised channel was used as the control channel.
Samples of antibody 6B3 (20.8 nM-667 nM) were injected (30 μL at 10 μL/min) in HBS buffer over immobilized peptide 3. Specific binding was observed as compared to the blank channel and then investigated further with smaller overlapping peptide sequences (data not shown).

Test [10] deals with T9, mouse PDGF-C core protein (mouse, UniProt Q8CI19 231-345, limits assumed).
T9 construct: also called COSmPCcoremedia
In words: immunoblot of COS-1 supernatant with mouse PDGF-C core, probed with purified antibody. How it is done:
To produce the mouse PDGF-CC protein, COS-1 cells were transfected with mouse PDGF-C core plasmid constructed in expression vector pCDNA3.1 (Invitrogen). Transfection using lipofectamine plus reagent (Invitrogen) was performed according to the manufacturer's instructions. Transfected cells were cultured in serum free media. At 24 hours post-transfection, culture supernatant (COSmPCcoremedia) was collected and 30 μl sample was loaded on SDS-PAGE together with human PDGF-C core protein (0.1 μg RhPcc) and proteins separated by SDS-PAGE. Protein was then isolated using standard means.
In general terms: A western blot detects proteins with antibodies after separation by electrophoresis.

Test [11] deals with T2, recombinant human PDGF-DD. The test can be described thus: immunoblot of recombinant PDGF-D after SDS-PAGE, probed with hybridoma supernatant, exposure 10 seconds.
The target in test [12] is T2, recombinant human PDGF-DD. The test can be described thus: ELISA on coated PDGF-AA, -BB, -CC, -DD and BSA.
Test [13] concerns the target T3, recombinant human PDGF-BB. The test can be described thus: ELISA on coated PDGF-AA, -BB, -CC, -DD and BSA.
The target in test [14] is T4, recombinant human PDGF-AA. The test can be described thus: ELISA on coated PDGF-AA, -BB, -CC, -DD and BSA.
Test [15] has as its target T1, recombinant human PDGF-CC active core …. In words: ELISA on coated PDGF-AA, -BB, -CC, -DD and BSA.
The target in test [16] is B2. In words: Biacore competition: 6B3 (333 nM) with soluble peptide injected over immobilised PDGF-CC core protein, maximum response plotted. How it is done: Biosensor analyses were performed on a BlAcore 2000 biosensor using a carboxymethyldextran-coated sensor chip (Xantec CMD). The chip was derivatised on channel 2 with the PDGF-CC core antigen (60 μg/mL) using standard amine coupling chemistry (0.05M NHS/0.2M EDC). Channel 1 was derivatised with ethanolamine and used as a blank control channel for correction of refractive index effects.
After the injection phase, the dissociation was monitored by flowing HBS buffer over the chip surface for 360s. Bound antibody was eluted and the chip surface regenerated between samples by injection of 30 μl of 10 mM Glycine pH 2.0

T2 sequence (Q9GZP0 250-370 limits assumed): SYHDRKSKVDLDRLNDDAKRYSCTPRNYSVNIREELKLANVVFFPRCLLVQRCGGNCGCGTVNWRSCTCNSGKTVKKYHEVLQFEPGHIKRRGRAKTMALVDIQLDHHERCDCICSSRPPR
T3 sequence (P01127 82-190): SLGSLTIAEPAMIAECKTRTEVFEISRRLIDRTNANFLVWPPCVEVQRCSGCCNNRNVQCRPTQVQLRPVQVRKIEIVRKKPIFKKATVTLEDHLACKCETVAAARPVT
T1 sequence (Q9NRA1 231-345 limits assumed): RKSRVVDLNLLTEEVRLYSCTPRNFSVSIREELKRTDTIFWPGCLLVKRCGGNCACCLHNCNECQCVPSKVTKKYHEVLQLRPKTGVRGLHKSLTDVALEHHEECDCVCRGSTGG
T9 sequence (Q8CI19 231-345 limits assumed): as the sequence (Q9NRA1 231-345 limits assumed) above, with R1K, R4K, D7N, T12K, R16K, S69R, R88K, S112N, T113A counted along it

B1: monoclonal antibody 12F5 (antibody, mouse IgG2a, V domains shown)
VH: EVKLEESGGGLVQPGGSRELSCEGSGFTFSGFWMSWVRQTPGKTLEWIGDINSDGSAIIYAPSIKDRFTIFRDNDKSTLYLQMNNVRSEDTATYFCMRWGYYGSNYFDYWGQGTTLTVSS
VL: DVVMTQTPLSLPVSLGDQASISCRSSQSIVHSNGNTYLHWYLQKPGQSPKLLIYRVSNRFSGVPDRFSGSGSGTDFTLKISRVEAEDMGVYYCFQGTHVPFTFGSGTKLEIKR
notes: Murine IgG2a, kappa light chain; also called anti-PDGF-CC mAb 12F5
B1: in [1], the Kd came to 2.2 nM, the off-rate (koff) (usually the first-order rate constant of dissociation) is 0.0002 s⁻¹ and the kon (usually a measure of how fast the partners come together) came to 90000 M⁻¹ s⁻¹. Besides, the binding result in [2] is “no binding (tested: 1.5 µg/ml)”. Moreover, the binding result in test [3] is “no binding (tested: 1.5 µg/ml)”. The binding result in test [4] is recorded as “no binding (tested: 1.5 µg/ml)”.
In the case of B2, the Kd in [1] worked out at 0.9 nM. Besides, the koff in [1] was determined as 0.0015 s⁻¹. In [1], the association rate constant (kon) came out at 1.8e+06 M⁻¹ s⁻¹. Further, the binding result in [5] is “no binding (tested: 667 nM)”; in test [6] it was “binds”; in test [7], “binds”; in test [8] it was “no binding (tested: 1.334 µM (legend; paragraph 184 says 667 nM))”; in test [9] it was “binds”; in test [2] it was “no binding (tested: 1.5 µg/ml)”. Besides, the binding result in [3] was “no binding (tested: 1.5 µg/ml)”; in test [4] it was “no binding (tested: 1.5 µg/ml)”; in test [10], “no binding”.

B3: monoclonal antibody 19C7 (antibody, mouse IgG2a, V domains shown)
VH: QVQLQQSGVEVARPGASVKLSCKASGYTFRSYGITWVRQRTGQGLEWIGEIYPRSGKTYYNEKFKGKATLTADTSSSTVYMELRSLTSEDSAVYFCAREGYGYDGGYFDYWGQGTTLTVSS
VL: DIVMTQSPSSLAMSVGQKVTMSCKSSQSLLNSRNQKNYLAWYQQKPGQSPKLLVYFASTRESGVPDRFTGSGSGTDFTLTISSVQAEDLAVYYCQQHYSTPLTFGAGTKLELKR
notes: Murine IgG2a, kappa light chain
Turning to B3, in [1], the Kd is 0.7 nM, the koff stood at 0.0016 s⁻¹ and the kon was 2.2e+06 M⁻¹ s⁻¹. For the same molecule, the binding result in test [2] is on record as “no binding (tested: 1.5 µg/ml)”. In addition, in [3], the binding result is on record as “no binding (tested: 1.5 µg/ml)”. Moreover, the binding result in [4] is listed as “no binding (tested: 1.5 µg/ml)”.

B4: monoclonal antibody 11F5 (antibody, mouse IgG2a, V domains shown)
VH: QVQLQQSGAELARPGASVKLSCKASGYIFISYGISWVKQRTGQGLEWIGEIYPRSGKTYYNEKFKDKAALTADKSSSIAYMELRSLTSEDSAVYFCAREGYGYDGGYFDYWGQGTILTVSS
VL: DIVMTQSPSSLAMSVGQKVAVSCKSSQSLLNSSNQKNYLAWYQQKPGQSPKLLVYFASTRDSGVPDRFTGSGSGTDFTLTISSVQAEDLAVYYCQQHYSTPLTFGAGTKLELKR
notes: as for B3
Take B4: in test [1], the Kd was 1.05 nM, the off-rate (koff) amounted to 0.00058 s⁻¹ and the kon was found to be 640000 M⁻¹ s⁻¹. Also, the binding result in test [3] is on record as “no binding (tested: 1.5 µg/ml)”. Moreover, the binding result in test [4] is recorded as “no binding (tested: 1.5 µg/ml)”. Besides, in [11], the binding result was “no binding”.

B5: chimeric anti-PDGF-CC antibody 6B3 (ch6B3) (antibody, V domains shown)
VH: QVQLQQSGVEVARPGASVKLSCKASGYTFGSYGITWVRQRTGQGLEWIGEIYPRSGKTYYNEKFKGKATLTADTSSSTVYMELRSLTSEDSAVYFCAREGYGYDGGYFDYWGQGTTLTVSS
VL: DIVMTQSPSSLAMSVGQKVTMSCKSSQSLLNSRNQKNYLAWYQQKPGQSPKLLVYFASTRESGVPDRFTGSGSGTDFTLTISSVQAEDLAVYYCQQHYSTPLTFGAGTKLELKR
notes: also called chimeric 6B3; mouse-human chimeric antibody 6B3
Turning to B5, in test [1], the Kd is 0.7 nM, the off-rate constant (koff) amounted to 0.00041 s⁻¹ and the kon amounted to 600000 M⁻¹ s⁻¹. The binding result in [12] is listed as “no binding”. For the same molecule, in test [13], the binding result was “no binding”. Moreover, the binding result in [14] is recorded as “no binding”.

B6: humanized anti-PDGF-CC antibody 6B3 (hu6B3), heavy chain R30 (antibody, V domains shown)
VH: QVQLVQSGAEVKKPGASVKVSCKASGYTFRSYGITWVRQATGQGLEWMGEIYPRSGKTGYAQKFQGRVTMTADTSTSTVYMELRSLRSEDSAVYFCAREGYGYDGGYFDYWGQGTLVTVSS
VL: DIVMTQSPSSLAMSVGERATINCKSSQSLLNSRNQKNYLAWYQQKPGQPPKLLIYFASTRESGVPDRFSGSGSGTDFTLTISSVQAEDVAVYYCQQHYSTPLTFGGGTKVELKR
notes: Human IgG1 kappa as the final form; also called hu6B3 R; hu6B3 R30
Regarding B6, the binding result in [12] was “no binding”; in [13], “no binding”; in [15], “binds”; in test [14] it was “no binding”.
For the molecule B7, the binding result in [16] was “binds”.
